From paper PMC4157451

Molecular target: T1, PvuRts1I, Q52612
T1 chain: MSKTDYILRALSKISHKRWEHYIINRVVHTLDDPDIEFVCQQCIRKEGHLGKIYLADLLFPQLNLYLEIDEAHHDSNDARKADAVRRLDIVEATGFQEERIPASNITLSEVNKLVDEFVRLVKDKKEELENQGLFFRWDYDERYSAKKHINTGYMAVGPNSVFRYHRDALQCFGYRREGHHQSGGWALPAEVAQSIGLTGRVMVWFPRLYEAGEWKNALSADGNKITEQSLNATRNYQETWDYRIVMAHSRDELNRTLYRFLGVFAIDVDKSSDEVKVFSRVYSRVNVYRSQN
Test: SEC; size-exclusion chromatography of purified PvuRts1I; single peak, apparent molecular weight 89 kDa against a theoretical 34 kDa
Details: remark: other sources report otherwise

stoichiometry N: 2
B1: PvuRts1I, Q52612 1-293 (enzyme)
chain: MSKTDYILRALSKISHKRWEHYIINRVVHTLDDPDIEFVCQQCIRKEGHLGKIYLADLLFPQLNLYLEIDEAHHDSNDARKADAVRRLDIVEATGFQEERIPASNITLSEVNKLVDEFVRLVKDKKEELENQGLFFRWDYDERYSAKKHINTGYMAVGPNSVFRYHRDALQCFGYRREGHHQSGGWALPAEVAQSIGLTGRVMVWFPRLYEAGEWKNALSADGNKITEQSLNATRNYQETWDYRIVMAHSRDELNRTLYRFLGVFAIDVDKSSDEVKVFSRVYSRVNVYRSQN
